According to patent publication US20240003880A1 (TRUSTEES OF COLUMBIA UNIVERSITY IN THE CITY OF NEW YORK, published 2024):

Columns and labels:
[1] = biological target: T1, SARS-CoV-2 nucleocapsid phosphoprotein (SARS-CoV-2, UniProt P0DTC9 1-419); assay: Western blot on NP denatured with DTT and heat (FIG. 4)
[2] = biological target: T1, SARS-CoV-2 nucleocapsid phosphoprotein; assay: ELISA (FIG. 3)

B1: antibody 9-9 (antibody, V domains shown)
VH: EVQLVESGGGLVQPGGSLRLSCAASGFIFSNYWMSWVRQAPGKGLEWVANTKQDDSEKYYVDAVKGRFTISRDNAKNSLYLQMNSLRADDTAVYYCAREVRIAVTGTSRDEDYSYNGMDVWGQGTTVTVSS
VL: SYELTQPPSVSVSPGQTARITCSADALAKQYAYWYQQKPGQAPVLVIFKDSERPSGIPERFSGSSSGTTVTLTISRVQAEDEADYYCQSADSSGYYWAFGGGTKLTVL
B1: binds [1].

B2: antibody 9-8 (antibody, V domains shown)
VH: EVQLVESGGGLVQPGGSLRLSCAASGFTFSTYWMSWVRQAPGKGLEWVANIKQDGSEKYYVDSVKGRFTISRDNAKNSLYLQMNSLRAEDTAVYYCARYSLDYYDTSGSFDYWGQGTLVAVSS
VL: SYELTQPPSVSVSPGQTARITCSGDALPKKYAYWYQQKSGQAPVLVIYEDSKRPSGIPERFSGSSSGTMATLTISGAQVEDEADYYCYSTDSSGNHRGVFGGGTQLTVL
B2: binds [2].

B3: antibody 9-29 (antibody, V domains shown)
VH: EVQLVQSGAEVKKSGESLKISCKGSGYSFTNYWIGWVRQMPGKGLEWMGIIYPGDSDTRHSPSFQGQVTISADKSLRTAYLQWSSLKASDTAIYYCARGADGYSSYFDYWGQGTLVTVSS
VL: NFMLTQPHSVSESPGKTVIISCTRSSGSIASDYVQWYQQRPGSVPTTVIYEDNERPSGVPDRFSGSIDSSSNSASLTISGLKTEDEADYYCQSYDSSVQVFGGGTKLTVL
B3: binds [1].
